B1: MBP-tagged glucocorticoid receptor ligand-binding domain (MBP-GR LBD, F602S, 520-777) (domain or fragment, UniProt P04150 520-777, looked up)
chain: IVPATLPQLTPTLVSLLEVIEPEVLYAGYDSSVPDSTWRIMTTLNMLGGRQVIAAVKWAKAIPGFRNLHLDDQMTLLQYSWMSLMAFALGWRSYRQSSANLLCFAPDLIINEQRMTLPCMYDQCKHMLYVSSELHRLQVSYEEYLCMKTLLLLSSVPKDGLKSQELFDEIRMTYIKELGKAIVKREGNSSQNWQRFYQLTKLLDSMHEVVENLLNYCFQTFLDKTMSIEFPEMLAEIITNQIPKYSNGNIKKLLFHQK
B2: p23 (natural protein, human)
chain: MQPASAKWYDRRDYVFIEFCVEDSKDVNVNFEKSKLTFSCLGGSDNFKHLNEIDLFHCIDPNDSKHKRTDRSILCCLRKGESGQSWPRLTKERAKLNWLSVDFNNWKDWEDDSDEDMSNFDRFSEMMNNMGGDEDVDLPEVDGADDDSQDSDDEKMPDLE
B3: MBP-tagged glucocorticoid receptor DNA binding domain, hinge and ligand binding domain (MBP-GR DBD-LBD, 418-777, F602S) (domain or fragment, UniProt P04150 418-777, looked up)
chain: PKLCLVCSDEASGCHYGVLTCGSCKVFFKRAVEGQHNYLCAGRNDCIIDKIRRKNCPACRYRKCLQAGMNLEARKTKKKIKGIQQATTGVSQETSENPGNKTIVPATLPQLTPTLVSLLEVIEPEVLYAGYDSSVPDSTWRIMTTLNMLGGRQVIAAVKWAKAIPGFRNLHLDDQMTLLQYSWMSLMAFALGWRSYRQSSANLLCFAPDLIINEQRMTLPCMYDQCKHMLYVSSELHRLQVSYEEYLCMKTLLLLSSVPKDGLKSQELFDEIRMTYIKELGKAIVKREGNSSQNWQRFYQLTKLLDSMHEVVENLLNYCFQTFLDKTMSIEFPEMLAEIITNQIPKYSNGNIKKLLFHQK
B4: CHIP E3 ubiquitin ligase (enzyme, human, UniProt Q9UNE7 1-303, looked up)
chain: MKGKEEKEGGARLGAGGGSPEKSPSAQELKEQGNRLFVGRKYPEAAACYGRAITRNPLVAVYYTNRALCYLKMQQHEQALADCRRALELDGQSVKAHFFLGQCQLEMESYDEAIANLQRAYSLAKEQRLNFGDDIPSALRIAKKKRWNSIEERRIHQESELHSYLSRLIAAERERELEECQRNHEGDEDDSHVRAQQACIEAKHDKYMADMDELFSQVDEKRKKRDIPDYLCGKISFELMREPCITPSGITYDRKDIEEHLQRVGHFDPVTRSPLTQEQLIPNLAMKEVIDAFISENGWVEDY

The target in assay [1] is T1, Hsp90a (wild-type Hsp90) (human, UniProt P07900 1-732). In words: SEC.
Assay [2] deals with D93N Hsp90 (human, UniProt P07900 1-732, D93N). In words: pull-down.
Assay [3] concerns the target Hop (human, UniProt P31948 1-543). In words: pull-down.
For assay [4], the target named is B1. In words: SEC. (Size exclusion chromatography separates by hydrodynamic size, large species first.)
Assay [5] deals with T1, Hsp90a (wild-type Hsp90). Nature of the assay: cryo-EM structure.

These results are taken from article doi:10.1101/2025.05.28.656676 (bioRxiv, 2025).

Take B1: the binding result in assay [1], in assay [2] and in assay [3] was “binds” throughout.
For the molecule B2, the binding result in assay [4] and in assay [5] was “binds” in each case.
Consider B3, for which the binding result in assay [5] is on record as “binds”.
For the molecule B4, in assay [5], the binding result was “binds”.
